Tested on: peptide library, one residue held at a place counted from the S/T acceptor
Test: relative phosphorylation of the sub-library (ratio to the mean residue at this position); human; higher = residue favoured
Method in brief: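 Each biotinylated degenerate peptide sub-library fixed one residue at one position around a central Ser/Thr and was incubated with a purified recombinant kinase, a human or orthologue construct, in 384-well plates. The 90 min reactions, under kinase-specific conditions, contained 50 μM peptide and 50 μM ATP spiked with γ-32P-ATP. Phosphorylation was read by phosphorimaging spots on streptavidin membranes and quantifying them by densitometry. Relative sub-library phosphorylation expresses each value as a ratio to the mean residue at that position.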

Sequence of GRK7, construct: Full length (Q8WTQ7 whole entry, looked up): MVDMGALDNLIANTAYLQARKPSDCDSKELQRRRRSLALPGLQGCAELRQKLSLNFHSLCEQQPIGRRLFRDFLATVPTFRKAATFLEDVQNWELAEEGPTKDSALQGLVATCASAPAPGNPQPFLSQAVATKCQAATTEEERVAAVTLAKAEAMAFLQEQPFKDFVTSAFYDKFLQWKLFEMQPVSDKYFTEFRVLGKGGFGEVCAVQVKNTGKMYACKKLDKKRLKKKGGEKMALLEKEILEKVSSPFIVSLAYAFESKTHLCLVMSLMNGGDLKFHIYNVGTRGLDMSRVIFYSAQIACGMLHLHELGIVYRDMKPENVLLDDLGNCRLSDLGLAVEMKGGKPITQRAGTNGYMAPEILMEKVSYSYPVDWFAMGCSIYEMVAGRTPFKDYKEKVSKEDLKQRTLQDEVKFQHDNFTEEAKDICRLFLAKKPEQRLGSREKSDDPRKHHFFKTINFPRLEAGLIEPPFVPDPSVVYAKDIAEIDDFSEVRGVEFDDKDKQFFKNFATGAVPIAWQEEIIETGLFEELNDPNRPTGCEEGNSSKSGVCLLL
Sequence of CHEK2, construct: Full length (O96017 whole entry, looked up): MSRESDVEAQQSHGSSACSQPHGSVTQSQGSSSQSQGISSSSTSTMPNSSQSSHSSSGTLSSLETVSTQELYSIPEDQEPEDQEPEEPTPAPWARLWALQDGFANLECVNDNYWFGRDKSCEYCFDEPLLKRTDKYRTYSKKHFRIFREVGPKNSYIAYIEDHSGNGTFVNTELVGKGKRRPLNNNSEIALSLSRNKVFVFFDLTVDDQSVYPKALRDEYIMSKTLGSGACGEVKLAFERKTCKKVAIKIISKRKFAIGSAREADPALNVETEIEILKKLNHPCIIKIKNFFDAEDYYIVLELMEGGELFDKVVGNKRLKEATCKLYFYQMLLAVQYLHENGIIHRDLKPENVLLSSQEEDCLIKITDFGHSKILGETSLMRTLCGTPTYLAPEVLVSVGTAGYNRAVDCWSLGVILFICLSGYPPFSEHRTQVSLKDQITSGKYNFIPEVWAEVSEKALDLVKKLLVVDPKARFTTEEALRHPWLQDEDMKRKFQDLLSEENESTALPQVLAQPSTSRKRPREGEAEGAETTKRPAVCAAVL
Sequence of MAP4K3, construct: aa1-380 (Q8IVH8 1-380, looked up): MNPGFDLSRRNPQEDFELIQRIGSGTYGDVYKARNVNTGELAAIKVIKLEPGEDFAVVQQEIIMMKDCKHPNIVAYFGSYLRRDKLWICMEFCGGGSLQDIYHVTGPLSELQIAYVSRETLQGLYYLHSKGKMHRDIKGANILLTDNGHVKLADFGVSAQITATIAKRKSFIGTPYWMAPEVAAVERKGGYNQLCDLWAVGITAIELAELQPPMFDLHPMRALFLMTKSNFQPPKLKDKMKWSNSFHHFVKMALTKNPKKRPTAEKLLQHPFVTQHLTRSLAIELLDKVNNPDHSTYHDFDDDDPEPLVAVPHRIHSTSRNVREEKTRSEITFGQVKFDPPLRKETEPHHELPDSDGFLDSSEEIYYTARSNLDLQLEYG
Sequence of EIF2AK1, construct: Full length (Q9BQI3 whole entry, looked up): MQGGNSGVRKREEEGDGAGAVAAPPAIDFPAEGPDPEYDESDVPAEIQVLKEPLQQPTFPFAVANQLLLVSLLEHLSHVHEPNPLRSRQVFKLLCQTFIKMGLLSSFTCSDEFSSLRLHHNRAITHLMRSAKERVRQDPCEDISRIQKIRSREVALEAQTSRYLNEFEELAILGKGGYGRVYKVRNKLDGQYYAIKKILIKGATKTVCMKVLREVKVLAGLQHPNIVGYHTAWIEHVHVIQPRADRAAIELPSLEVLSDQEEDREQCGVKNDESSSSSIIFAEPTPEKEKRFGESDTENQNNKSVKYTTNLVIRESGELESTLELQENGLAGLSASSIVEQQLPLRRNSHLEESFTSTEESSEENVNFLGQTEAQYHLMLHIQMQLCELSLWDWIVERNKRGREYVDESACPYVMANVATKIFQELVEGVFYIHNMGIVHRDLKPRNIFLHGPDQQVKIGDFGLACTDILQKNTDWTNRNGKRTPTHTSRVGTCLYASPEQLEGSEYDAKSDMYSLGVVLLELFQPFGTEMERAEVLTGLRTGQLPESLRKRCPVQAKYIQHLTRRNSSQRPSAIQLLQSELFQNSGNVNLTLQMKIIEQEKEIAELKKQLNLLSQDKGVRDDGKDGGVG

EIF2AK1, construct: Full length (from UniProt Q9BQI3)
relative phosphorylation
Conditions | at +1 | at +2 | at +3 | at +4 | at -1 | at -2 | at -3 | at -4 | at -5
A fixed | 0.697 | 0.999 | 0.699 | 0.762 | 0.698 | 0.907 | 1.04 | 0.971 | 0.979
D fixed | 0.365 | 0.489 | 0.403 | 0.602 | 1.26 | 3.35 | 1.11 | 0.87 | 0.672
E fixed | 0.358 | 0.382 | 0.388 | 0.565 | 1.01 | 2.47 | 0.857 | 0.724 | 0.619
F fixed | 1.5 | 0.874 | 1.3 | 0.975 | 1.09 | 0.752 | 0.955 | 1.15 | 1.31
G fixed | 1.21 | 0.923 | 1.09 | 0.945 | 0.469 | 0.846 | 0.936 | 0.89 | 0.897
H fixed | 0.788 | 1.24 | 1.12 | 1.01 | 1.56 | 1.1 | 1.04 | 1.03 | 0.962
I fixed | 1.24 | 0.954 | 0.788 | 0.809 | 1.19 | 0.606 | 1.09 | 1.1 | 1.29
K fixed | 0.975 | 1.74 | 1.59 | 1.49 | 0.796 | 0.648 | 0.864 | 0.998 | 1
L fixed | 1.08 | 0.747 | 0.904 | 0.936 | 1.15 | 0.56 | 1.07 | 1.06 | 1.08
M fixed | 1.77 | 0.895 | 0.938 | 0.893 | 1.16 | 0.726 | 1.29 | 1.07 | 1.04
N fixed | 0.991 | 1.12 | 0.808 | 0.964 | 1.14 | 0.783 | 0.904 | 0.826 | 0.728
P fixed | 0.293 | 0.692 | 0.917 | 0.893 | 0.374 | 0.581 | 0.695 | 0.73 | 0.79
Q fixed | 1.02 | 0.889 | 0.77 | 0.923 | 0.761 | 0.809 | 0.842 | 0.751 | 0.696
R fixed | 1.79 | 1.99 | 2.1 | 1.9 | 1.07 | 0.73 | 0.958 | 1.03 | 1.16
V fixed | 0.705 | 0.903 | 0.733 | 0.612 | 1.07 | 0.58 | 0.731 | 0.93 | 1.06
W fixed | 1.02 | 0.918 | 1.26 | 1.57 | 0.731 | 0.787 | 1.23 | 1.59 | 1.44
Y fixed | 1.2 | 1.25 | 1.19 | 1.15 | 1.46 | 0.764 | 1.38 | 1.28 | 1.27
pThr fixed | 0.374 | 0.484 | 0.489 | 0.601 | 0.504 | 0.816 | 0.761 | 0.647 | 0.631
pTyr fixed | 0.536 | 0.481 | 0.569 | 0.607 | 2.17 | 0.943 | 0.981 | 0.732 | 0.792

GRK7, construct: Full length (from UniProt Q8WTQ7)
relative phosphorylation
Conditions | at +1 | at +2 | at +3 | at +4 | at -1 | at -2 | at -3 | at -4 | at -5
A fixed | 0.839 | 1.23 | 0.77 | 1.09 | 0.809 | 0.805 | 0.636 | 0.878 | 0.87
D fixed | 0.701 | 0.93 | 1.85 | 1.55 | 1.57 | 3.03 | 2.12 | 2.48 | 2.26
E fixed | 2.1 | 0.894 | 4.35 | 1.69 | 1.31 | 2.43 | 1.75 | 1.9 | 2.03
F fixed | 1.46 | 0.843 | 0.513 | 0.682 | 0.512 | 0.624 | 0.474 | 0.516 | 0.621
G fixed | 0.823 | 1.15 | 0.924 | 1.1 | 1.7 | 1.13 | 1.24 | 1.04 | 1.34
H fixed | 0.927 | 1.21 | 0.851 | 1.08 | 1.1 | 0.573 | 0.673 | 0.699 | 0.883
I fixed | 0.765 | 1.11 | 0.372 | 0.799 | 0.495 | 0.533 | 0.499 | 0.553 | 0.729
K fixed | 0.58 | 1.02 | 1.54 | 1.05 | 1.47 | 0.693 | 1.44 | 0.738 | 0.838
L fixed | 0.907 | 0.921 | 0.581 | 0.818 | 0.621 | 0.548 | 0.534 | 0.54 | 0.589
M fixed | 0.899 | 0.689 | 0.401 | 0.658 | 0.53 | 0.572 | 0.493 | 0.58 | 0.678
N fixed | 0.704 | 1.15 | 0.604 | 0.726 | 1.66 | 0.956 | 1.16 | 0.872 | 0.96
P fixed | 0.826 | 1.2 | 0.999 | 1.43 | 1.26 | 1.71 | 1.89 | 2.61 | 1.16
Q fixed | 1.08 | 0.88 | 0.896 | 0.926 | 1.22 | 0.687 | 0.794 | 0.728 | 0.73
R fixed | 0.56 | 1.02 | 0.848 | 0.792 | 0.891 | 0.762 | 1.58 | 0.798 | 0.955
V fixed | 0.654 | 1.07 | 0.415 | 0.894 | 0.629 | 0.589 | 0.544 | 0.754 | 0.751
W fixed | 1.93 | 0.822 | 0.572 | 0.758 | 0.513 | 0.614 | 0.554 | 0.702 | 0.858
Y fixed | 1.25 | 0.868 | 0.515 | 0.975 | 0.717 | 0.737 | 0.623 | 0.61 | 0.753
pThr fixed | 2.52 | 1.05 | 1.66 | 3.54 | 1.01 | 3.79 | 2.48 | 2.06 | 1.5
pTyr fixed | 7.56 | 1.29 | 1.41 | 1.9 | 2.83 | 3.58 | 2.14 | 1.9 | 1.67

MAP4K3, construct: aa1-380 (from UniProt Q8IVH8)
relative phosphorylation
Conditions | at +1 | at +2 | at +3 | at +4 | at -1 | at -2 | at -3 | at -4 | at -5
A fixed | 0.464 | 0.792 | 0.671 | 0.932 | 0.978 | 1.09 | 0.815 | 0.964 | 1.07
D fixed | 0.179 | 0.667 | 0.375 | 0.655 | 0.611 | 0.522 | 0.553 | 0.851 | 0.835
E fixed | 0.151 | 0.643 | 0.296 | 0.592 | 0.437 | 0.406 | 0.569 | 0.894 | 0.687
F fixed | 1.09 | 0.464 | 0.536 | 0.71 | 0.692 | 1.16 | 0.778 | 0.991 | 0.922
G fixed | 0.613 | 0.996 | 0.846 | 1.12 | 1.93 | 1.43 | 1.51 | 1.39 | 1.32
H fixed | 0.606 | 1.12 | 1.04 | 1.07 | 1.21 | 1.34 | 1.13 | 1.04 | 1.07
I fixed | 1.8 | 0.357 | 0.432 | 0.733 | 0.279 | 0.676 | 0.556 | 0.696 | 0.772
K fixed | 0.642 | 2.68 | 2.32 | 1.93 | 1.66 | 0.987 | 2.27 | 1.34 | 1.49
L fixed | 3.72 | 0.602 | 0.549 | 0.722 | 0.859 | 0.655 | 0.602 | 0.748 | 0.637
M fixed | 2.73 | 0.664 | 0.51 | 0.9 | 1.05 | 0.687 | 0.651 | 0.869 | 0.862
N fixed | 0.632 | 1.11 | 0.868 | 1.05 | 1.54 | 1.16 | 1.07 | 0.867 | 1.01
P fixed | 0.418 | 1.16 | 0.942 | 1.11 | 0.741 | 0.854 | 1.08 | 1.13 | 1.11
Q fixed | 0.655 | 0.952 | 0.952 | 1.17 | 0.998 | 0.785 | 0.843 | 0.928 | 0.864
R fixed | 0.67 | 3.22 | 4.5 | 1.67 | 1.92 | 1.5 | 2.13 | 1.48 | 1.45
V fixed | 0.672 | 0.428 | 0.497 | 0.743 | 0.362 | 0.815 | 0.529 | 0.695 | 0.833
W fixed | 1.14 | 0.528 | 0.893 | 0.999 | 0.668 | 1.3 | 0.935 | 1.16 | 1.07
Y fixed | 0.821 | 0.615 | 0.772 | 0.885 | 1.06 | 1.63 | 0.978 | 0.968 | 1.01
pThr fixed | 0.928 | 0.749 | 0.717 | 0.614 | 0.437 | 0.985 | 1.11 | 1.13 | 1.32
pTyr fixed | 0.355 | 0.389 | 0.637 | 0.486 | 0.516 | 0.763 | 1.04 | 0.852 | 1.16

CHEK2, construct: Full length (from UniProt O96017)
relative phosphorylation
Conditions | at +1 | at +2 | at +3 | at +4 | at -1 | at -2 | at -3 | at -4 | at -5
A fixed | 0.589 | 0.731 | 0.81 | 0.837 | 0.816 | 1.26 | 0.562 | 0.987 | 0.172
D fixed | 0.317 | 0.397 | 0.484 | 0.53 | 0.702 | 0.276 | 0.1 | 0.367 | 0.236
E fixed | 0.402 | 0.382 | 0.407 | 0.541 | 0.383 | 0.785 | 0.136 | 0.839 | 0.307
F fixed | 1.88 | 1.06 | 1.33 | 0.985 | 0.809 | 0.672 | 0.197 | 0.895 | 1.42
G fixed | 0.741 | 0.784 | 0.818 | 0.987 | 0.707 | 0.679 | 0.275 | 0.743 | 0.514
H fixed | 0.892 | 1.43 | 1.05 | 1.27 | 1.21 | 1.01 | 0.614 | 0.953 | 0.619
I fixed | 1.51 | 0.934 | 0.975 | 0.941 | 0.81 | 0.598 | 0.199 | 0.924 | 1.7
K fixed | 1.02 | 1.12 | 1.16 | 1.33 | 1.71 | 1.53 | 2.26 | 1.63 | 0.694
L fixed | 1.41 | 0.851 | 1.02 | 0.859 | 1.28 | 0.843 | 0.217 | 1.02 | 2.42
M fixed | 1.5 | 0.978 | 1.04 | 0.929 | 1.15 | 1.37 | 0.256 | 1.17 | 1.55
N fixed | 0.93 | 0.941 | 0.889 | 1.14 | 1.61 | 0.832 | 0.208 | 0.651 | 0.491
P fixed | 0.389 | 0.946 | 0.956 | 1.04 | 1.06 | 0.219 | 0.177 | 0.548 | 1.03
Q fixed | 0.877 | 0.801 | 0.857 | 0.945 | 0.84 | 1.71 | 0.543 | 1.09 | 0.815
R fixed | 1.34 | 1.97 | 1.53 | 1.65 | 1.63 | 2.92 | 10.5 | 2.23 | 1.52
V fixed | 1.04 | 0.875 | 0.848 | 0.731 | 0.777 | 0.621 | 0.205 | 1.1 | 1.39
W fixed | 1.07 | 1.24 | 1.44 | 1.17 | 0.587 | 0.639 | 0.284 | 0.807 | 0.914
Y fixed | 1.09 | 1.55 | 1.39 | 1.12 | 0.924 | 1.04 | 0.265 | 1.05 | 1.19
pThr fixed | 0.96 | 1.06 | 0.653 | 0.586 | 0.354 | 0.477 | 0.214 | 0.662 | 0.472
pTyr fixed | 0.529 | 0.489 | 0.659 | 0.575 | 0.603 | 0.4 | 0.178 | 0.574 | 0.725
